The term Kd denotes a measure of binding affinity in units of concentration. A low value points to higher affinity.

The results in this text go back to doi:10.1101/2022.08.28.505448 (bioRxiv, 2022).

To fix the notation:
T1: GB1-TAZ2 (human, UniProt Q09472 1723-1812, C1738A | C1746A | C1789A | C1790A)
T1 sequence (looked up): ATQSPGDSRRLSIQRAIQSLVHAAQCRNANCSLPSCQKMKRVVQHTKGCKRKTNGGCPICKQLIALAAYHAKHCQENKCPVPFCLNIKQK

T2: MITF_(81-204) (UniProt O75030-9 81-204)
T2 sequence (looked up): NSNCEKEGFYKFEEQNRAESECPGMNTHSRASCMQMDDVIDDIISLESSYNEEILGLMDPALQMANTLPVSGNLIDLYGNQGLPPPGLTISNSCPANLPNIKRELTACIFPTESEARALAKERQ

T3: GB1-MITF_(81-204) Δ123-127 (UniProt O75030-9 81-204, Δ123-127)
T3 sequence (looked up): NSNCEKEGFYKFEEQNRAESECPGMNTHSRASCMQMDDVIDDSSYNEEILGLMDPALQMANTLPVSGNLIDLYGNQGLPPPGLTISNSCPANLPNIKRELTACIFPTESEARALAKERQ

B1: MITF_(117-135) peptide, Asp118 mutated to alanine (peptide, UniProt O75030-9 117-135, looked up)
peptide: DAVIDDIISLESSYNEEIL
B2: MITF_(117-135) peptide, Ile124 mutated to alanine (peptide, UniProt O75030-9 117-135, looked up)
peptide: DDVIDDIASLESSYNEEIL
B3: MITF_(117-135) peptide, Asp122 mutated to alanine (peptide, UniProt O75030-9 117-135, looked up)
peptide: DDVIDAIISLESSYNEEIL
B4: MITF_(117-135) peptide, Ile123 mutated to alanine (peptide, UniProt O75030-9 117-135, looked up)
peptide: DDVIDDAISLESSYNEEIL
B5: MITF_(117-135) peptide, Ile120 mutated to alanine (peptide, UniProt O75030-9 117-135, looked up)
peptide: DDVADDIISLESSYNEEIL
B6: MITF_(117-135) peptide, Ser125 mutated to alanine (peptide, UniProt O75030-9 117-135, looked up)
peptide: DDVIDDIIALESSYNEEIL
B7: MITF_(117-135) peptide, Asp121 mutated to alanine (peptide, UniProt O75030-9 117-135, looked up)
peptide: DDVIADIISLESSYNEEIL
B8: MITF_(117-135) peptide, Glu127 mutated to alanine (peptide, UniProt O75030-9 117-135, looked up)
peptide: DDVIDDIISLASSYNEEIL
B9: MITF_(117-135) peptide, Leu126 mutated to alanine (peptide, UniProt O75030-9 117-135, looked up)
peptide: DDVIDDIISAESSYNEEIL
B10: MITF_(117-135) peptide, Asp117 mutated to alanine (peptide, UniProt O75030-9 117-135, looked up)
peptide: ADVIDDIISLESSYNEEIL
B11: MITF_(117-135) peptide, Val119 mutated to alanine (peptide, UniProt O75030-9 117-135, looked up)
peptide: DDAIDDIISLESSYNEEIL
B12: TAZ2 (residues 1723-1812 of p300 with four stabilizing mutations) (domain or fragment, human, UniProt Q09472 1723-1812, looked up)
chain: T1 sequence (looked up)
B13: TAZ1 (residues 346-440 of CBP) (domain or fragment)
chain: not shown

One assay concerns the target T1, GB1-TAZ2. The assay is described as follows: peptide or protein array.
Take B1: the binding result is given as “binds”. With B2, the binding result is reported as “binds”. Still for that read-out and setting: in the case of B3 it was “binds”; in that of B4, “binds”; in that of B5, “binds”. On the same count and under the same terms, in the case of B6 it was “binds”. Still for that read-out and setting: in the case of B7 it was “binds”.

On to B8, for which the binding result was “binds”. For B9, the binding result is “binds”.

For B10, the binding result is “binds”.

On to B11, for which the binding result was “binds”.

A further assay deals with T2, MITF_(81-204). The assay is described as follows: ITC. A general note: In ITC the heat of successive injections is recorded.
B12 came in with a Kd of 1.24 ± 0.23 µM.

B13 showed a Kd of 6.7 ± 0.5 µM.

For the next assay, the target named is T3, GB1-MITF_(81-204) Δ123-127. Put plainly: pull-down.
With B12, the binding result was “binds”.
